From the supplement of paper PMC9876800

Tested on: peptide library, one residue held at a place counted from the S/T acceptor
Assay: relative phosphorylation of the sub-library (ratio to the mean residue at this position); human; higher = residue favoured
In short: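 Purified recombinant kinases (human or orthologue constructs) were incubated in 384-well plates with biotinylated degenerate peptide sub-libraries, each fixing one residue at one position around a central Ser/Thr. Peptides were at 50 μM, with 50 μM ATP spiked with γ-32P-ATP, for 90 min under kinase-specific conditions. Spots on streptavidin membranes were phosphorimaged and quantified by densitometry. Relative sub-library phosphorylation is a ratio to the mean residue at that position.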

NEK4, construct: Full length, sequence (P51957 whole entry, looked up): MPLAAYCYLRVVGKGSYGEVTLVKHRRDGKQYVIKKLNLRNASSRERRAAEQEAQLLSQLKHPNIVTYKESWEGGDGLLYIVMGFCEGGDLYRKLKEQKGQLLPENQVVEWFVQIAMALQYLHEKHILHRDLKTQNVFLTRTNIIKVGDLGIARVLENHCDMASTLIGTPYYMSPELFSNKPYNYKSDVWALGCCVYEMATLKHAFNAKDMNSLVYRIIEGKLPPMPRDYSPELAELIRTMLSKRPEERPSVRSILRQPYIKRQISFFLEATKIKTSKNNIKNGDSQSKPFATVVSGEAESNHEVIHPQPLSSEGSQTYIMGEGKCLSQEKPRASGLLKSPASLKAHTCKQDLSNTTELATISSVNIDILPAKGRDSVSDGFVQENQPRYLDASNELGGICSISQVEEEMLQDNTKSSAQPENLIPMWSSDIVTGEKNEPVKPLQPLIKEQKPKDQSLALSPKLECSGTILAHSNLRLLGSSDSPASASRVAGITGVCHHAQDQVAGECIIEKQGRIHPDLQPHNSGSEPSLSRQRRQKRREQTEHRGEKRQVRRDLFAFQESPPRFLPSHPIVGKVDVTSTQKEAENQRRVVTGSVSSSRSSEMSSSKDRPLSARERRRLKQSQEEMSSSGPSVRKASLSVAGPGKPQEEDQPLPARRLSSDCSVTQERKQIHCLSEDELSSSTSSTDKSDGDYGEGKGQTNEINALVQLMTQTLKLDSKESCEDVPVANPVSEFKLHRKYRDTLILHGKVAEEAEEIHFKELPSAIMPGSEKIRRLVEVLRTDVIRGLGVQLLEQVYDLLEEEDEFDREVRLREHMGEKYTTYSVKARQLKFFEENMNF

NEK4, construct: Full length (from UniProt P51957)
relative phosphorylation
Details | at +1 | at +2 | at +3 | at +4 | at -1 | at -2 | at -3 | at -4 | at -5
A fixed | 0.695 | 0.961 | 0.797 | 0.821 | 1.32 | 0.985 | 1.18 | 1.02 | 0.983
D fixed | 0.169 | 0.409 | 0.375 | 0.693 | 0.63 | 0.601 | 0.422 | 0.811 | 0.797
E fixed | 0.153 | 0.368 | 0.341 | 0.66 | 0.638 | 0.505 | 0.416 | 0.733 | 0.662
F fixed | 1.03 | 0.851 | 1.73 | 1.03 | 0.868 | 1.16 | 1.64 | 1.14 | 1.21
G fixed | 0.921 | 0.795 | 0.91 | 1.16 | 1.25 | 1.16 | 1.2 | 1.32 | 1.04
H fixed | 0.775 | 1.2 | 1.1 | 1.08 | 1.02 | 1.02 | 0.998 | 1.05 | 1.03
I fixed | 1.63 | 0.625 | 0.899 | 0.69 | 0.583 | 0.8 | 0.658 | 0.754 | 0.822
K fixed | 0.974 | 2.01 | 0.977 | 1.56 | 1.4 | 0.902 | 0.985 | 1.17 | 1.16
L fixed | 2.19 | 0.939 | 1.23 | 0.996 | 1.06 | 1.61 | 1.9 | 1.12 | 0.79
M fixed | 2.2 | 1.04 | 1.07 | 0.932 | 1.36 | 1.47 | 1.72 | 0.969 | 0.966
N fixed | 0.592 | 0.86 | 0.652 | 0.92 | 0.935 | 1.43 | 0.674 | 0.913 | 0.962
P fixed | 0.176 | 0.993 | 1.03 | 1.28 | 0.374 | 0.588 | 0.973 | 0.912 | 1.22
Q fixed | 1.02 | 0.971 | 0.842 | 1.08 | 1.09 | 1.01 | 0.766 | 0.916 | 0.983
R fixed | 1.17 | 2.43 | 1.25 | 1.31 | 1.77 | 1.07 | 0.953 | 1.04 | 1.32
V fixed | 0.929 | 0.838 | 0.74 | 0.653 | 0.666 | 0.677 | 0.573 | 0.835 | 0.878
W fixed | 1.44 | 0.722 | 1.62 | 1.25 | 0.925 | 1.18 | 1.02 | 1.31 | 1.11
Y fixed | 0.937 | 0.986 | 1.44 | 0.891 | 1.09 | 0.832 | 0.921 | 1 | 1.08
pThr fixed | 0.423 | 0.506 | 0.526 | 0.476 | 0.332 | 0.64 | 0.735 | 0.793 | 0.867
pTyr fixed | 0.248 | 0.588 | 0.557 | 0.506 | 0.752 | 1.11 | 0.806 | 0.755 | 1.01
